{
  "source": "paper PMC10099132",
  "about": "“Sequence and Structural Motifs Controlling the Broad Substrate Specificity of the Mycobacterial Hormone-Sensitive Lipase LipN” (ACS Omega, 2023)",
  "proteins": {"B1": {"name": "MmLipN (LipN from M. marinum) (Mycobacterium marinum M) (protein)", "chain": "MTNSLPGETDLHPETVHATMSWLSRVQNTVTVVGAKVIPWVPDVAKRLITRGRSVIIDGNTLDPALQLMLSGMRVVGLDGLVIDDDLAASRAHMREAMLGFPGPQIHVDVEELTLPGPAGDISARHYRPPGDAAAPLLVFYHGGGWALGDLDTHDAVCRLTCRDAGIHVLAIDYRLSPEDRAPAAIDDAFAAFEWAHAHAAELGALPGRVAVGGDSAGGNLAAVVSQLARDSGGPAPIFQWLIYPRTDFAGRTRSASLFARGFLLTKRDIDWFHSQYLKGSGIEPTDPRVSPLRAESLAGLAPALIAVAGFDPLRDEGENYATALRAAGTPVDLRAMGSLTHGFLNLFPLGGGCAAATSELISALRAHLTRV", "notes": "E. coli LOBSTR (DE3); Ni-NTA"}},
  "assay_in_all_cases": "purified protein, by the assay type",
  "set-up_in_all_cases": "fluorogenic ester hydrolysis, fluorescein release, Michaelis-Menten fit of initial rates",
  "key": {"[1]": {"substrate": "O=C1OC2(c3ccc(OCOC(=O)C4(c5ccccc5)CC4)cc3Oc3cc(OCOC(=O)C4(c5ccccc5)CC4)ccc32)c2ccccc21", "experimental": "(§1) The enzyme kinetic activity of LipN was assayed via the hydrolysis of the fluorogenic substrates (Figure 1) in accordance with past kinetic analysis of mycobacterial serine hydrolases.[37],[38],[40],[66],[67] Kinetic assays were run in triplicate on black 96-well plates in a Synergy H1 Hybrid Reader (BioTek). Fluorogenic ester substrates (10 mM in DMSO) were diluted to a starting concentration of 100 μM in PBS containing acetylated BSA (Sigma; 0.1 mg/mL). Eight serial dilutions (1:1; 120 μL into 240 μL total volume) of each substrate were made using PBS–BSA. Fluorogenic substrate dilutions (95 μL) were then transferred to opaque 96-well microplate (Corning, Lowell, MA). Reactions were initiated by quickly adding enzyme (5 μL, 3.0 nM final concentration) to each assay well, mixed, and the fluorescence counts measured every 26–30 s for 4.5 min with a BioTek H1 Synergy multimode plate reader (Biotek Instruments; Winooski, VT) at ambient temperature. The instrument measured relative fluorescence through excitation at λ = 485 nm and emission at λ = 520 nm. The fluorescence change was converted to molar concentrations using a fluorescein standard curve (300–2.3 nM), whose fluorescence was measured simultaneously. The initial rates of the enzyme-catalyzed reactions were measured in triplicate and plotted versus fluorogenic substrate concentration. […] (A) Activation of fluorogenic ester substrates by MmLipN. Each of the substrates is composed of diacyloxymethyl ether fluorescein with varying R-groups. The differing R-groups have been organized into classes and colored based on chemical functionality. All of the substrates were synthesized as described previously.[38],[43] Substrates 6, 10–11, 14–15, 20, 23–30, and 33 were newly synthesized for this characterization of MmLipN. Detailed synthetic characterization is provided in the Supporting Information. (B) Global comparison of the catalytic specificity (kcat/KM) of MmLipN against each of the 33 substrates with ester classes labeled. Catalytic efficiency values (kcat/Km) are given ± SD based on at least three independent kinetic replicates. (C, D) Kinetic activity of MmLipN against high-activity ester substrates 1 (black circles), 7 (blue squares), and 20 (red diamonds) and low-activity ester substrates 12 (green circles), 16 (red squares), 27 (purple diamonds), and 31 (orange squares). Low- and high-activity substrates display classic Michaelis–Menten kinetics with MmLipN and activity above background hydrolysis rates. Traces colored based on ester classification from (A, B). All measurements were completed in at least triplicate and shown ± SD."}, "[2]": {"substrate": "CC1(C(=O)OCOc2ccc3c(c2)Oc2cc(OCOC(=O)C4(C)CC4(Cl)Cl)ccc2C32OC(=O)c3ccccc32)CC1(Cl)Cl", "experimental": "as §1"}, "[3]": {"substrate": "CC(C)C(=O)OCOc1ccc2c(c1)Oc1cc(OCOC(=O)C(C)C)ccc1C21OC(=O)c2ccccc21", "experimental": "as §1"}, "[4]": {"substrate": "N#CC1(C(=O)OCOc2ccc3c(c2)Oc2cc(OCOC(=O)C4(C#N)CC4)ccc2C32OC(=O)c3ccccc32)CC1", "experimental": "as §1"}, "[5]": {"substrate": "COCC(=O)OCOc1ccc2c(c1)Oc1cc(OCOC(=O)COC)ccc1C21OC(=O)c2ccccc21", "experimental": "as §1"}, "[6]": {"substrate": "COCCOCCC(=O)OCOc1ccc2c(c1)Oc1cc(OCOC(=O)CCOCCOC)ccc1C21OC(=O)c2ccccc21", "experimental": "as §1"}, "[7]": {"substrate": "O=C1OC2(c3ccc(OCOC(=O)C4(c5ccccn5)CC4)cc3Oc3cc(OCOC(=O)C4(c5ccccn5)CC4)ccc32)c2ccccc21", "experimental": "as §1"}, "[8]": {"substrate": "CCCC(=O)OCOc1ccc2c(c1)Oc1cc(OCOC(=O)CCC)ccc1C21OC(=O)c2ccccc21", "experimental": "as §1"}, "[9]": {"substrate": "CCC(=O)OCOc1ccc2c(c1)Oc1cc(OCOC(=O)CC)ccc1C21OC(=O)c2ccccc21", "experimental": "as §1"}, "[10]": {"substrate": "N#CCC(=O)OCOc1ccc2c(c1)Oc1cc(OCOC(=O)CC#N)ccc1C21OC(=O)c2ccccc21", "experimental": "as §1"}, "[11]": {"substrate": "CC1(C)CC1C(=O)OCOc1ccc2c(c1)Oc1cc(OCOC(=O)C3CC3(C)C)ccc1C21OC(=O)c2ccccc21", "experimental": "as §1"}},
  "data": [
    {"protein": "B1", "values": [
      {"measurement": "Km", "setting": "[1]", "result": "13 ± 8", "unit": "µM"},
      {"measurement": "kcat", "setting": "[1]", "result": "5.8e-05 ± 0.00014", "unit": "s⁻¹"},
      {"measurement": "kcat/Km", "setting": "[1]", "result": "4.4 ± 5.4", "unit": "M⁻¹ s⁻¹"},
      {"measurement": "Km", "setting": "[2]", "result": "0.87 ± 1.1", "unit": "µM"},
      {"measurement": "kcat", "setting": "[2]", "result": "1.1e-05 ± 3e-05", "unit": "s⁻¹"},
      {"measurement": "kcat/Km", "setting": "[2]", "result": "12 ± 19", "unit": "M⁻¹ s⁻¹"},
      {"measurement": "Km", "setting": "[3]", "result": "9.5 ± 2.2", "unit": "µM"},
      {"measurement": "kcat", "setting": "[3]", "result": "0.017 ± 0.014", "unit": "s⁻¹"},
      {"measurement": "kcat/Km", "setting": "[3]", "result": "1800 ± 800", "unit": "M⁻¹ s⁻¹"},
      {"measurement": "Km", "setting": "[4]", "result": "1.7 ± 1.1", "unit": "µM"},
      {"measurement": "kcat", "setting": "[4]", "result": "0.0012 ± 0.0018", "unit": "s⁻¹"},
      {"measurement": "kcat/Km", "setting": "[4]", "result": "670 ± 590", "unit": "M⁻¹ s⁻¹"},
      {"measurement": "Km", "setting": "[5]", "result": "2.6 ± 1.1", "unit": "µM"},
      {"measurement": "kcat", "setting": "[5]", "result": "0.11 ± 0.12", "unit": "s⁻¹"},
      {"measurement": "kcat/Km", "setting": "[5]", "result": "40000 ± 25000", "unit": "M⁻¹ s⁻¹"},
      {"measurement": "Km", "setting": "[6]", "result": "21 ± 4", "unit": "µM"},
      {"measurement": "kcat", "setting": "[6]", "result": "0.0005 ± 0.0004", "unit": "s⁻¹"},
      {"measurement": "kcat/Km", "setting": "[6]", "result": "26 ± 11", "unit": "M⁻¹ s⁻¹"},
      {"measurement": "Km", "setting": "[7]", "result": "0.049 ± 0.027", "unit": "µM"},
      {"measurement": "kcat", "setting": "[7]", "result": "2.6e-05 ± 2e-05", "unit": "s⁻¹"},
      {"measurement": "kcat/Km", "setting": "[7]", "result": "530 ± 250", "unit": "M⁻¹ s⁻¹"},
      {"measurement": "Km", "setting": "[8]", "result": "6.2 ± 0.1", "unit": "µM"},
      {"measurement": "kcat", "setting": "[8]", "result": "0.062 ± 0.029", "unit": "s⁻¹"},
      {"measurement": "kcat/Km", "setting": "[8]", "result": "10000 ± 5000", "unit": "M⁻¹ s⁻¹"},
      {"measurement": "Km", "setting": "[9]", "result": "4.2 ± 0.5", "unit": "µM"},
      {"measurement": "kcat", "setting": "[9]", "result": "0.18 ± 0.06", "unit": "s⁻¹"},
      {"measurement": "kcat/Km", "setting": "[9]", "result": "42000 ± 15000", "unit": "M⁻¹ s⁻¹"},
      {"measurement": "Km", "setting": "[10]", "result": "3.1 ± 0.6", "unit": "µM"},
      {"measurement": "kcat", "setting": "[10]", "result": "0.015 ± 0.008", "unit": "s⁻¹"},
      {"measurement": "kcat/Km", "setting": "[10]", "result": "4900 ± 1400", "unit": "M⁻¹ s⁻¹"},
      {"measurement": "Km", "setting": "[11]", "result": "1.7 ± 1.1", "unit": "µM"},
      {"measurement": "kcat", "setting": "[11]", "result": "0.0011 ± 0.0018", "unit": "s⁻¹"},
      {"measurement": "kcat/Km", "setting": "[11]", "result": "660 ± 590", "unit": "M⁻¹ s⁻¹"}
    ]}
  ]
}
